Measured values: patent publication US20090105152A1
Square brackets hold non-standard residues; d marks the D form. Izc = imidazolidine-2-carboxylic acid; Arg(Me) = CNC(=N)NCCC[C@H](N)C(=O)O; dDap = NC[C@@H](N)C(=O)O; Dab = NCC[C@H](N)C(=O)O; azaGly = NNC(=O)O; βAla = NCCC(=O)O

Target: human OT7T175 (metastin receptor) (human) (UniProt Q969F8)
Test: cell-based or functional assay

Chain of human OT7T175 (metastin receptor) (human) (Q969F8 whole entry L364H): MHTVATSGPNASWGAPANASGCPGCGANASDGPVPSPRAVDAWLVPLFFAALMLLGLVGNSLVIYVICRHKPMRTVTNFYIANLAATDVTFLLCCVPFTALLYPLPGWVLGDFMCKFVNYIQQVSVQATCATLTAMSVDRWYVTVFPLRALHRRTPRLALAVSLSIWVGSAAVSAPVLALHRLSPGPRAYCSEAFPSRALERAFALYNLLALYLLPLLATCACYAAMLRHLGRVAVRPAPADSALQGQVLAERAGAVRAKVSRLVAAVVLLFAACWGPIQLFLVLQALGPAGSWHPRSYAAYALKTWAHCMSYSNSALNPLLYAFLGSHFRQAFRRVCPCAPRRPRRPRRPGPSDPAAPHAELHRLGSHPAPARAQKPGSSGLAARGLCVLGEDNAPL

Binder | intracellular Ca ion level-increasing activity [specific activity to Metastin (1-54)] (relative to Metastin (1-54))
Ac-[dY][Izc]NTF[azaGly]L[Arg(Me)]W-NH2 [des(1)-Ac-[D-Tyr2,Izc3,Thr5,AzaGly7,Arg(Me)9,Trp10]MS10] | 2.3
Ac-[dY][dD]NTF[azaGly]L[Arg(Me)]W-NH2 (SMILES CNC(=N)NCCC[C@H](NC(=O)[C@H](CC(C)C)NC(=O)NNC(=O)[C@H](Cc1ccccc1)NC(=O)[C@@H](NC(=O)[C@H](CC(N)=O)NC(=O)[C@@H](CC(=O)O)NC(=O)[C@@H](Cc1ccc(O)cc1)NC(C)=O)[C@@H](C)O)C(=O)N[C@@H](Cc1c[nH]c2ccccc12)C(N)=O) [des(1)-Ac-[D-Tyr2,D-Asp3,Thr5,AzaGly7,Arg(Me)9,Trp10]MS10] | 3.4
Ac-[dY][dDap]NTF[azaGly]L[Arg(Me)]W-NH2 (SMILES CNC(=N)NCCC[C@H](NC(=O)[C@H](CC(C)C)NC(=O)NNC(=O)[C@H](Cc1ccccc1)NC(=O)[C@@H](NC(=O)[C@H](CC(N)=O)NC(=O)[C@@H](CN)NC(=O)[C@@H](Cc1ccc(O)cc1)NC(C)=O)[C@@H](C)O)C(=O)N[C@@H](Cc1c[nH]c2ccccc12)C(N)=O) [des(1)-Ac-[D-Tyr2,D-Dap3,Thr5,AzaGly7,Arg(Me)9,Trp10]MS10] | 2.4
Ac-[dY][dS]NTF[azaGly]L[Arg(Me)]W-NH2 (SMILES CNC(=N)NCCC[C@H](NC(=O)[C@H](CC(C)C)NC(=O)NNC(=O)[C@H](Cc1ccccc1)NC(=O)[C@@H](NC(=O)[C@H](CC(N)=O)NC(=O)[C@@H](CO)NC(=O)[C@@H](Cc1ccc(O)cc1)NC(C)=O)[C@@H](C)O)C(=O)N[C@@H](Cc1c[nH]c2ccccc12)C(N)=O) [des(1)-Ac-[D-Tyr2,D-Ser3,Thr5,AzaGly7,Arg(Me)9,Trp10]MS10] | 3
Ac-[dY][dQ]NTF[azaGly]L[Arg(Me)]W-NH2 (SMILES CNC(=N)NCCC[C@H](NC(=O)[C@H](CC(C)C)NC(=O)NNC(=O)[C@H](Cc1ccccc1)NC(=O)[C@@H](NC(=O)[C@H](CC(N)=O)NC(=O)[C@@H](CCC(N)=O)NC(=O)[C@@H](Cc1ccc(O)cc1)NC(C)=O)[C@@H](C)O)C(=O)N[C@@H](Cc1c[nH]c2ccccc12)C(N)=O) [des(1)-Ac-[D-Tyr2,D-Gln3,Thr5,AzaGly7,Arg(Me)9,Trp10]MS10] | 1.4
Ac-NTF[azaGly]L[Arg(Me)]W-NH2 (SMILES CNC(=N)NCCC[C@H](NC(=O)[C@H](CC(C)C)NC(=O)NNC(=O)[C@H](Cc1ccccc1)NC(=O)[C@@H](NC(=O)[C@H](CC(N)=O)NC(C)=O)[C@@H](C)O)C(=O)N[C@@H](Cc1c[nH]c2ccccc12)C(N)=O) [des(1-3)-Ac-[Thr5,AzaGly7,Arg(Me)9,Trp10]MS10] | 9.8
Ac-[dY][dH]NTF[azaGly]L[Arg(Me)]W-NH2 (SMILES CNC(=N)NCCC[C@H](NC(=O)[C@H](CC(C)C)NC(=O)NNC(=O)[C@H](Cc1ccccc1)NC(=O)[C@@H](NC(=O)[C@H](CC(N)=O)NC(=O)[C@@H](Cc1c[nH]cn1)NC(=O)[C@@H](Cc1ccc(O)cc1)NC(C)=O)[C@@H](C)O)C(=O)N[C@@H](Cc1c[nH]c2ccccc12)C(N)=O) [des(1)-Ac-[D-Tyr2,D-His3,Thr5,AzaGly7,Arg(Me)9,Trp10]MS10] | 1.6
Ac-[dY][dW][Dab]TF[azaGly]L[Arg(Me)]W-NH2 (SMILES CNC(=N)NCCC[C@H](NC(=O)[C@H](CC(C)C)NC(=O)NNC(=O)[C@H](Cc1ccccc1)NC(=O)[C@@H](NC(=O)[C@H](CCN)NC(=O)[C@@H](Cc1c[nH]c2ccccc12)NC(=O)[C@@H](Cc1ccc(O)cc1)NC(C)=O)[C@@H](C)O)C(=O)N[C@@H](Cc1c[nH]c2ccccc12)C(N)=O) [des(1)-Ac-[D-Tyr2,D-Trp3,Dab4,Thr5,AzaGly7,Arg(Me)9,Trp10]MS10] | 1.1
Ac-[dY]ANTF[azaGly]L[Arg(Me)]W-NH2 (SMILES CNC(=N)NCCC[C@H](NC(=O)[C@H](CC(C)C)NC(=O)NNC(=O)[C@H](Cc1ccccc1)NC(=O)[C@@H](NC(=O)[C@H](CC(N)=O)NC(=O)[C@H](C)NC(=O)[C@@H](Cc1ccc(O)cc1)NC(C)=O)[C@@H](C)O)C(=O)N[C@@H](Cc1c[nH]c2ccccc12)C(N)=O) [des(1)-Ac-[D-Tyr2,Ala3,Thr5,AzaGly7,Arg(Me)9,Trp10]MS10] | 2.3
Ac-[dY]LNTF[azaGly]L[Arg(Me)]W-NH2 (SMILES CNC(=N)NCCC[C@H](NC(=O)[C@H](CC(C)C)NC(=O)NNC(=O)[C@H](Cc1ccccc1)NC(=O)[C@@H](NC(=O)[C@H](CC(N)=O)NC(=O)[C@H](CC(C)C)NC(=O)[C@@H](Cc1ccc(O)cc1)NC(C)=O)[C@@H](C)O)C(=O)N[C@@H](Cc1c[nH]c2ccccc12)C(N)=O) [des(1)-Ac-[D-Tyr2,Leu3,Thr5,AzaGly7,Arg(Me)9,Trp10]MS10] | 3.4
Ac-[dY]SNTF[azaGly]L[Arg(Me)]W-NH2 (SMILES CNC(=N)NCCC[C@H](NC(=O)[C@H](CC(C)C)NC(=O)NNC(=O)[C@H](Cc1ccccc1)NC(=O)[C@@H](NC(=O)[C@H](CC(N)=O)NC(=O)[C@H](CO)NC(=O)[C@@H](Cc1ccc(O)cc1)NC(C)=O)[C@@H](C)O)C(=O)N[C@@H](Cc1c[nH]c2ccccc12)C(N)=O) [des(1)-Ac-[D-Tyr2,Ser3,Thr5,AzaGly7,Arg(Me)9,Trp10]MS10] | 2.4
Ac-[dY]KNTF[azaGly]L[Arg(Me)]W-NH2 (SMILES CNC(=N)NCCC[C@H](NC(=O)[C@H](CC(C)C)NC(=O)NNC(=O)[C@H](Cc1ccccc1)NC(=O)[C@@H](NC(=O)[C@H](CC(N)=O)NC(=O)[C@H](CCCCN)NC(=O)[C@@H](Cc1ccc(O)cc1)NC(C)=O)[C@@H](C)O)C(=O)N[C@@H](Cc1c[nH]c2ccccc12)C(N)=O) [des(1)-Ac-[D-Tyr2,Lys3,Thr5,AzaGly7,Arg(Me)9,Trp10]MS10] | 3
Ac-[dY]ENTF[azaGly]L[Arg(Me)]W-NH2 (SMILES CNC(=N)NCCC[C@H](NC(=O)[C@H](CC(C)C)NC(=O)NNC(=O)[C@H](Cc1ccccc1)NC(=O)[C@@H](NC(=O)[C@H](CC(N)=O)NC(=O)[C@H](CCC(=O)O)NC(=O)[C@@H](Cc1ccc(O)cc1)NC(C)=O)[C@@H](C)O)C(=O)N[C@@H](Cc1c[nH]c2ccccc12)C(N)=O) [des(1)-Ac-[D-Tyr2,Glu3,Thr5,AzaGly7,Arg(Me)9,Trp10]MS10] | 2.2
Ac-[dY][βAla]NTF[azaGly]L[Arg(Me)]W-NH2 (SMILES CNC(=N)NCCC[C@H](NC(=O)[C@H](CC(C)C)NC(=O)NNC(=O)[C@H](Cc1ccccc1)NC(=O)[C@@H](NC(=O)[C@H](CC(N)=O)NC(=O)CCNC(=O)[C@@H](Cc1ccc(O)cc1)NC(C)=O)[C@@H](C)O)C(=O)N[C@@H](Cc1c[nH]c2ccccc12)C(N)=O) [des(1)-Ac-[D-Tyr2,β-Ala3,Thr5,AzaGly7,Arg(Me)9,Trp10]MS10] | 2.6
